The text below walks through data of publication PMC5014551 (2016).

Sequences and labels used below:
B1: Bol1-Strep [S. cerevisiae] / Bio2 [S. cerevisiae (endogenous in yeast mitochondria)] (parent complex)
chain 1: MFKRAMSTDGPVARTILKRLECGFPDYKNFAFGLYNDSHKHKGHAGVQGNVSAETHFRIEMVSKKFEGLKLPQRHRMVYSLLQDEMAQANGIHALQLSLKTPQEYESKAK
chain 2: TKYATNAAVKSTTASSEASTLGALQYALSLDEPSHSWTKSQLKEIYHTPLLELTHAAQLQHRKWHDPTKVQLCTLMNIKSGGCSEDCKYCAQSSRNDTGLKAEKMVKVDEVIKEAEEAKRNGSTRFCLGAAWRDMKGRKSAMKRIQEMVTKVNDMGLETCVTLGMVDQDQAKQLKDAGLTAYNHNIDTSREHYSKVITTRTYDDRLQTIKNVQESGIKACTGGILGLGESEDDHIGFIYTLSNMSPHPESLPINRLVAIKGTPMAEELADPKSKKLQFDEILRTIATARIVMPKAIIRLAAGRYTMKETEQFVCFMAGCNSIFTGKKMLTTMCNGWDEDKAMLAKWGLQPMEAFKYDRS
B2: Bol1-Strep [S. cerevisiae] / Aco1 [S. cerevisiae (endogenous in yeast mitochondria)] (parent complex)
chain 1: B1 chain 1
chain 2: ATVSNLTRDSKVNQNLLEDHSFINYKQNVETLDIVRKRLNRPFTYAEKILYGHLDDPHGQDIQRGVSYLKLRPDRVACQDATAQMAILQFMSAGLPQVAKPVTVHCDHLIQAQVGGEKDLKRAIDLNKEVYDFLASATAKYNMGFWKPGSGIIHQIVLENYAFPGALIIGTDSHTPNAGGLGQLAIGVGGADAVDVMAGRPWELKAPKILGVKLTGKMNGWTSPKDIILKLAGITTVKGGTGKIVEYFGDGVDTFSATGMGTICNMGAEIGATTSVFPFNKSMIEYLEATGRGKIADFAKLYHKDLLSADKDAEYDEVVEIDLNTLEPYINGPFTPDLATPVSKMKEVAVANNWPLDVRVGLIGSCTNSSYEDMSRSASIVKDAAAHGLKSKTIFTVTPGSEQIRATIERDGQLETFKEFGGIVLANACGPCIGQWDRRDIKKGDKNTIVSSYNRNFTSRNDGNPQTHAFVASPELVTAFAIAGDLRFNPLTDKLKDKDGNEFMLKPPHGDGLPQRGYDAGENTYQAPPADRSTVEVKVSPTSDRLQLLKPFKPWDGKDAKDMPILIKAVGKTTTDHISMAGPWLKYRGHLENISNNYMIGAINAENKKANCVKNVYTGEYKGVPDTARDYRDQGIKWVVIGDENFGEGSSREHAALEPRFLGGFAIITKSFARIHETNLKKQGLLPLNFKNPADYDKINPDDRIDILGLAELAPGKPVTMRVHPKNGKPWDAVLTHTFNDEQIEWFKYGSALNKIKADEKK
B3: Bol1-Strep [S. cerevisiae] / Aco2 [S. cerevisiae (endogenous in yeast mitochondria)] (parent complex)
chain 1: B1 chain 1
chain 2: ATHANMFPSVSKNFQTKVPPYAKLLTNLDKIKQITNNAPLTLAEKILYSHLCDPEESITSSDLSTIRGNKYLKLNPDRVAMQDASAQMALLQFMTTGLNQTSVPASIHCDHLIVGKDGETKDLPSSIATNQEVFDFLESCAKRYGIQFWGPGSGIIHQIVLENFSAPGLMMLGTDSHTPNAGGLGAIAIGVGGADAVDALTGTPWELKAPKILGVKLTGKLNGWSTPKDVITKLAGLLTVRGGTGYIVEYFGEGVSTLSCTGMATICNMGAEIGATTSTFPYQEAHKRYLQATNRAEVAEAADVALNKFNFLRADKDAQYDKVIEIDLSAIEPHVNGPFTPDLSTPISQYAEKSLKENWPQKVSAGLIGSCTNSSYQDMSRVVDLVKQASKAGLKPRIPFFVTPGSEQIRATLERDGIIDIFQENGAKVLANACGPCIGQWNREDVSKTSKETNTIFTSFNRNFRARNDGNRNTMNFLTSPEIVTAMSYSGDAQFNPLTDSIKLPNGKDFKFQPPKGDELPKRGFEHGRDKFYPEMDPKPDSNVEIKVDPNSDRLQLLEPFKPWNGKELKTNVLLKVEGKCTTDHISAAGVWLKYKGHLENISYNTLIGAQNKETGEVNKAYDLDGTEYDIPGLMMKWKSDGRPWTVIAEHNYGEGSAREHAALSPRFLGGEILLVKSFARIHETNLKKQGVLPLTFANESDYDKISSGDVLETLNLVDMIAKDGNNGGEIDVKITKPNGESFTIKAKHTMSKDQIDFFKAGSAINYIGNIRRNE
B4: Bol1-Strep [S. cerevisiae] / Lip5 [S. cerevisiae (endogenous in yeast mitochondria)] (parent complex)
chain 1: B1 chain 1
chain 2: SSTIRCGTSATRPIRSNALNTDSDNASVRVPVGNSTEVENATSQLTGTSGKRRKGNRKRITEFKDALNLGPSFADFVSGKASKMILDPLEKARQNTEEAKKLPRWLKVPIPKGTNYHKLKGDVKELGLSTVCEEARCPNIGECWGGKDKSKATATIMLLGDTCTRGCRFCSVKTNRTPSKPDPMEPENTAEAIKRWGLGYVVLTTVDRDDLVDGGANHLAETVRKIKQKAPNTLVETLSGDFRGDLKMVDIMAQCGLDVYAHNLETVESLTPHVRDRRATYRQSLSVLERAKATVPSLITKTSIMLGLGETDEQITQTLKDLRNIQCDVVTFGQYMRPTKRHMKVVEYVKPEKFDYWKERALEMGFLYCASGPLVRSSYKAGEAFIENVLKKRNMK
B5: Bol3-Strep [S. cerevisiae] / dihydroxyacid dehydratase (Ilv3) [S. cerevisiae (endogenous in yeast mitochondria)] (parent complex)
chain 1: MKLPQTMLRSISVKHVRWPRILTGSKLWYSTQMAMTPEEKMITDKLQQELEPEVCKVQDVSGGCGSMFAINITSKKFNGLSLIKQHQLVNRILRDDISRWHGLQLTTKKSTGKGPASS
chain 2: not shown
B6: Bol1-Strep [S. cerevisiae] / dihydroxyacid dehydratase (Ilv3) [S. cerevisiae (endogenous in yeast mitochondria)] (parent complex)
chain 1: B1 chain 1
chain 2: not shown
B7: Bol1-Strep [S. cerevisiae] / Sdh2 [S. cerevisiae (endogenous in yeast mitochondria)] (parent complex)
chain 1: B1 chain 1
chain 2: TATTAAATHTPRLKTFKVYRWNPDEPSAKPHLQSYQVDLNDCGPMVLDALLKIKDEQDSTLTFRRSCREGICGSCAMNIGGRNTLACICKIDQNESKQLKIYPLPHMFIVKDLVPDLTNFYQQYKSIQPYLQRSSFPKDGTEVLQSIEDRKKLDGLYECILCACCSTSCPSYWWNQEQYLGPAVLMQAYRWLIDSRDQATKTRKAMLNNSMSLYRCHTIMNCTRTCPKGLNPGLAIAEIKKSLAFA
B8: Bol1-Strep [S. cerevisiae] / Isa2 [S. cerevisiae] (parent complex)
chain 1: B1 chain 1
chain 2: MQAKLLFTRLNFRRPSTTLRQFPLTCFLFHSKAFYSDLVTKEPLITPKRIINKTPGLNLSISERASNRLAEIYRNSKENLRISVESGGCHGFQYNLTLEPATKPDIKNDVKDKEFSDDLDDDDSKDIIYVLPEDKGRVIIDSKSLNILNNTTLTYTNELIGSSFKIINGSLKSSCGCGSSFDIEN
B9: Bol1-Strep [S. cerevisiae] / Lys4 [S. cerevisiae (endogenous in yeast mitochondria)] (parent complex)
chain 1: B1 chain 1
chain 2: LKGQNLTEKIVQSYAVNLPEGKVVHSGDYVSIKPAHCMSHDNSWPVALKFMGLGATKIKNPSQIVTTLDHDIQNKSEKNLTKYKNIENFAKKHHIDHYPAGRGIGHQIMIEEGYAFPLNMTVASDSHSNTYGGLGSLGTPIVRTDAAAIWATGQTWWQIPPVAQVELKGQLPQGVSGKDIIVALCGLFNNDQVLNHAIEFTGDSLNALPIDHRLTIANMTTEWGALSGLFPVDKTLIDWYKNRLQKLGTNNHPRINPKTIRALEEKAKIPKADKDAHYAKKLIIDLATLTHYVSGPNSVKVSNTVQDLSQQDIKINKAYLVSCTNSRLSDLQSAADVVCPTGDLNKVNKVAPGVEFYVAAASSEIEADARKSGAWEKLLKAGCIPLPSGCGPCIGLGAGLLEPGEVGISATNRNFKGRMGSKDALAYLASPAVVAASAVLGKISSPAEVLSTSEIPFSGVKTEIIENPVVEEEVNAQTEAPKQSVEILEGFPREFSGELVLCDADNINTDGIYPGKYTYQDDVPKEKMAQVCMENYDAEFRTKVHPGDIVVSGFNFGTGSSREQAATALLAKGINLVVSGSFGNIFSRNSINNALLTLEIPALIKKLREKYQGAPKELTRRTGWFLKWDVADAKVVVTEGSLDGPVILEQKVGELGKNLQEIIVKGGLEGWVKSQL

Variants of B1 are the subject of the first test. The test is described as follows: Strep-tag affinity purification with MS proteomics (spectral counts); parent: 0; read off a plot.
On to chain 1 MFKRAMSTDGPVARTILKRLECGFPDYKNFAFGLYNDSHKHKGHAGVQGNVSAETHFRIEMVSKKFEGLKLPQRHRMVYSLLQDEMAQANGICALQLSLKTPQEYESKAK, for which the screen value was approximately 0%.

The variants in another test derive from B2. The test is described as follows: Strep-tag affinity purification with MS proteomics (spectral counts); parent: 3.5; read off a plot.
Regarding chain 1 MFKRAMSTDGPVARTILKRLECGFPDYKNFAFGLYNDSHKHKGHAGVQGNVSAETHFRIEMVSKKFEGLKLPQRHRMVYSLLQDEMAQANGICALQLSLKTPQEYESKAK, the screen value is approximately 1.5%.

Variants of B3 are the subject of the next test. The test is described as follows: Strep-tag affinity purification with MS proteomics (spectral counts); parent: 0; read off a plot.
In the case of chain 1 MFKRAMSTDGPVARTILKRLECGFPDYKNFAFGLYNDSHKHKGHAGVQGNVSAETHFRIEMVSKKFEGLKLPQRHRMVYSLLQDEMAQANGICALQLSLKTPQEYESKAK, the screen value was approximately 0%.

Variants of B4 are the subject of a further test. The description is as above.
Consider chain 1 MFKRAMSTDGPVARTILKRLECGFPDYKNFAFGLYNDSHKHKGHAGVQGNVSAETHFRIEMVSKKFEGLKLPQRHRMVYSLLQDEMAQANGICALQLSLKTPQEYESKAK, for which the screen value was approximately 0%.

In the next test the parent is B5. The test is described as follows: Strep-tag affinity purification with MS proteomics (spectral counts); parent: 16; read off a plot.
On to chain 1 H101C, for which the screen value was approximately 45%.

The next test covers variants of B6. Description: Strep-tag affinity purification with MS proteomics (spectral counts); parent: 4; read off a plot.
Consider chain 1 H93C, for which the screen value was approximately 0%.

In another test the parent is B7. The test is described as follows: Strep-tag affinity purification with MS proteomics (spectral counts); parent: 0; read off a plot.
On to chain 1 MFKRAMSTDGPVARTILKRLECGFPDYKNFAFGLYNDSHKHKGHAGVQGNVSAETHFRIEMVSKKFEGLKLPQRHRMVYSLLQDEMAQANGICALQLSLKTPQEYESKAK, for which the screen value is approximately 0%.

Variants of B8 are the subject of the next test. The test is described as above.
As to chain 1 MFKRAMSTDGPVARTILKRLECGFPDYKNFAFGLYNDSHKHKGHAGVQGNVSAETHFRIEMVSKKFEGLKLPQRHRMVYSLLQDEMAQANGICALQLSLKTPQEYESKAK, the screen value is approximately 0%.

In the next test the parent is B9. The test is described as above.
For the variant chain 1 MFKRAMSTDGPVARTILKRLECGFPDYKNFAFGLYNDSHKHKGHAGVQGNVSAETHFRIEMVSKKFEGLKLPQRHRMVYSLLQDEMAQANGICALQLSLKTPQEYESKAK, the screen value is approximately 0%.
